US20110319869A1 (US Dept. of Health and Human Services, published 2011)
Like-named read-outs stand apart in the source and are kept apart here.

What was measured:
[1] = biological target: T1, HLA-A2 molecule (human); assay: T2 cell binding assay: flow cytometry of surface HLA-A2 with anti-HLA-A2 mAb; negative control
T1 construct: also called HLA-A2 on T2 cells (174CEM-T2; T2A2 cells)

[2] = biological target: T1, HLA-A2 molecule; assay: T2 cell binding assay: flow cytometry of surface HLA-A2 with anti-HLA-A2 mAb after incubation with peptide (50 µg/ml)
Experimental: In this assay, increased stability (accumulation) of HLA-A2 molecules on the surface of T2 cells as a consequence of peptide binding is measured by increased binding of antibody directed against HLA-A2 molecule. Briefly, 1×10⁶ cells in serum-free Iscove's modified Dulbecco's complete medium were incubated with peptides at a concentration of 50 μg/ml in 24-well culture plates at 37° C. in 5% CO₂. Flow cytometry for peptide binding was performed using T2 cells and single-color analysis. After cells were washed three times in DPBS, as described above, they were incubated for 1 h with a 1:100 dilution of HLA-A2—specific MAb (One Lambda, Inc.) per 10⁶ cells. UPC-10 (Cappel/Organon Teknika) was used as isotype control. The cells were then washed three times and incubated with 1:100 dilution of FITC-labeled anti-mouse IgG (BD Biosciences). Analysis was conducted with the FACScan, as described above. Cells were maintained on ice during all cell preparation and staining. […]

[3] = biological target: T1, HLA-A2 molecule; assay: T2 cell binding assay, flow cytometry with anti-HLA-A2 mAb
Experimental: (§1) In this assay, increased stability (accumulation) of HLA-A2 molecules on the surface of T2 cells as a consequence of peptide binding is measured by increased binding of antibody directed against HLA-A2 molecule. Briefly, 1×10⁶ cells in serum-free Iscove's modified Dulbecco's complete medium were incubated with peptides at a concentration of 50 μg/ml in 24-well culture plates at 37° C. in 5% CO₂. Flow cytometry for peptide binding was performed using T2 cells and single-color analysis. After cells were washed three times in DPBS, as described above, they were incubated for 1 h with a 1:100 dilution of HLA-A2—specific MAb (One Lambda, Inc.) per 10⁶ cells. UPC-10 (Cappel/Organon Teknika) was used as isotype control. The cells were then washed three times and incubated with 1:100 dilution of FITC-labeled anti-mouse IgG (BD Biosciences). Analysis was conducted with the FACScan, as described above. Cells were maintained on ice during all cell preparation and staining.
The primary amino acid sequence of human MUC-1 was analyzed for consensus motifs for novel HLA-A2 binding peptides.

[4] = biological target: T1, HLA-A2 molecule; assay: T2 cell binding assay: flow cytometry of surface HLA-A2 with anti-HLA-A2 mAb after incubation with peptide (50 µg/ml); remark: listed apart in the source
Experimental: as §1

Row | Molecule | T2 binding (relative fluorescence) [2] | T2 binding (relative fluorescence) [4] | further results
1 | CEA CAP-7 (HLA-A3 binding peptide) | – | – | T2 binding (relative fluorescence) (relative fluorescence values) [1]: 200
2 | TLASHSTKTD [MUC-1 peptide P-1104, TLASHSTKTD] | 442 relative fluorescence | – | –
3 | YRPGENLNL [NCA peptide, YRPGENLNL] | – | – | binding result [3]: no binding (tested: 50 µg/ml peptide)
4 | TISDVSVSDV [MUC-1 peptide P-1135, TISDVSVSDV] | 422 relative fluorescence | – | –
5 | REGTINVHDV [MUC-1 peptide P-1108, REGTINVHDV] | 482 relative fluorescence | – | –
6 | LQRDISEMFL [MUC-1 peptide P-1069, LQRDISEMFL] | 433 relative fluorescence | – | –
7 | WGQDVTSVPV [MUC-1 peptide P-94, WGQDVTSVPV] | 591 relative fluorescence | – | –
8 | LAFREGTINV [MUC-1 peptide P-1105, LAFREGTINV] | 461 relative fluorescence | – | –
9 | ATWGQDVTSV (Synthetic 10-mer from the non-VNTR region of MUC-1) [MUC-1 peptide P-92 (native), ATWGQDVTSV] | 740 relative fluorescence | 510 relative fluorescence values | –
10 | ALWGQDVTSV (also called L-93; MUC-1 peptide) [MUC-1 agonist peptide P-93L, ALWGQDVTSV] | – | 821 relative fluorescence values | –
11 | GTQSPFFLLL [MUC-1 peptide P-4, GTQSPFFLLL] | 467 relative fluorescence | – | –

Further lines, with some results ahead:

Row | T2 binding (relative fluorescence) [2] | T2 binding (relative fluorescence) [4] | Molecule | further results
12 | 369 relative fluorescence | – | VLVALAIVYL [MUC-1 peptide P-1169, VLVALAIVYL] | –
13 | 431 relative fluorescence | – | ALLVLVCVLV [MUC-1 peptide P-1162, ALLVLVCVLV] | –
14 | – | 280 relative fluorescence values | AIWGQDVTSL [MUC-1 peptide analogue I-93/L-101] | –
15 | – | 723 relative fluorescence values | AMWGQDVTSV [MUC-1 peptide analogue M-93] | –
16 | – | 736 relative fluorescence values | ALWGQDVTSL [MUC-1 peptide analogue L-93/L-101] | –
17 | – | 823 relative fluorescence values | AIWGQDVTSV (also called I-93) [MUC-1 peptide analogue P-93I] | –
18 | – | 325 relative fluorescence values | AMWGQDVTSL [MUC-1 peptide analogue M-93/L-101] | –
